Laboratory results taken from US20240294646A1.
Blank lines part the entries; values can stand above or below the substance they belong to.

Legend:
[1] = target: FcγRIIb, soluble extracellular domain (UniProt P31994); experiment: SPR, Protocol 2; ratio of the fold on FcγRIIb to the fold on FcγRIIaR; the wild-type reference itself
[2] = target: FcγRIIaR, soluble extracellular domain (UniProt P12318); experiment: SPR, Protocol 2; the wild-type reference itself
[3] = target: FcγRIIb, soluble extracellular domain (UniProt P31994); experiment: SPR, Protocol 2; the wild-type reference itself
[4] = target: FcγRIIb, soluble extracellular domain (UniProt P31994); experiment: SPR, Protocol 2; ratio of the fold on FcγRIIb to the fold on FcγRIIaR
[5] = target: FcγRIIaR, soluble extracellular domain (UniProt P12318); experiment: SPR, Protocol 2; fold over wild-type v16463
[6] = target: FcγRIIb, soluble extracellular domain (UniProt P31994); experiment: SPR, Protocol 2; fold over wild-type v16463
[7] = target: FcγRIIb, soluble extracellular domain (UniProt P31994); experiment: SPR; FcγRIIb affinity fold relative to control v27294
[8] = target: FcγRIIaR, soluble extracellular domain (UniProt P12318); experiment: SPR; fold change in FcγRIIaR affinity over WT v16463
[9] = target: FcγRIIb, soluble extracellular domain (UniProt P31994); experiment: SPR; IIb-Fold/IIaR-Fold (FcγRIIb over FcγRIIaR, vs WT v16463)
[10] = target: FcγRIIb, soluble extracellular domain (UniProt P31994); experiment: SPR; fold change in FcγRIIb affinity over WT v16463
[11] = target: FcγRIIaR, soluble extracellular domain (UniProt P12318); experiment: SPR (Biacore 4000, Protocol 2): antibody captured on immobilised HER2, soluble receptor as analyte
[12] = target: FcγRIIb, soluble extracellular domain (UniProt P31994); experiment: as above
[13] = target: FcγRIIb, soluble extracellular domain (UniProt P31994); experiment: SPR; IIb-Fold/IIaR-Fold relative to control v27294
[14] = target: FcγRIIaR, soluble extracellular domain (UniProt P12318); experiment: SPR; FcγRIIaR affinity fold relative to control v27294
[15] = target: FcγRIIb, soluble extracellular domain (UniProt P31994); experiment: SPR; IIb-Fold/IIaR-Fold (FcγRIIb against FcγRIIaR), relative to control v27293
[16] = target: FcγRIIb, soluble extracellular domain (UniProt P31994); experiment: SPR; IIb-Fold/IIaR-Fold (FcγRIIb against FcγRIIaR), vs. wild-type v16463
[17] = target: FcγRIIaR, soluble extracellular domain (UniProt P12318); experiment: SPR; fold change in affinity over control v27293 (Strategy 1 Launching Module)
[18] = target: FcγRIIb, soluble extracellular domain (UniProt P31994); experiment: as above
[19] = target: FcγRIIaR, soluble extracellular domain (UniProt P12318); experiment: SPR (General Methods Protocol 2): one-armed antibody captured on immobilised HER2, soluble receptor as analyte
[20] = target: FcγRIIb, soluble extracellular domain (UniProt P31994); experiment: as above
[21] = target: FcγRIIaR, soluble extracellular domain (UniProt P12318); experiment: SPR; fold change in affinity over wild-type v16463
[22] = target: FcγRIIb, soluble extracellular domain (UniProt P31994); experiment: SPR; fold change in affinity over wild-type v16463
[23] = target: Soluble FcγRIIaR extracellular domain with C-terminal 10×His tag (UniProt P12318); experiment: SPR; KD of WT v16463 / KD of variant
[24] = target: Soluble FcγRIIb extracellular domain with C-terminal 10×His tag (UniProt P31994); experiment: SPR; KD of WT v16463 / KD of variant
[25] = target: Soluble FcγRIIb extracellular domain with C-terminal 10×His tag (UniProt P31994); experiment: SPR; IIb-Fold / IIaR-Fold (FcγRIIb against FcγRIIaR)
[26] = target: Biotinylated FcγRIIb extracellular domain-Fc fusion (human) (UniProt P31994); experiment: competition electrochemiluminescence (MSD), antibody on HER2-coated plate, biotinylated FcγRIIb-Fc; competitor FcγRIIaR-Fc at 10x
[27] = target: Soluble FcγRIIaR extracellular domain with C-terminal 10×His tag (UniProt P12318); experiment: SPR (Biacore 4000), antibody captured on immobilised HER2, receptor as analyte
[28] = target: Soluble FcγRIIb extracellular domain with C-terminal 10×His tag (UniProt P31994); experiment: as above
[29] = target: FcγRIIaR (UniProt P12318); experiment: SPR (Biacore 4000, Protocol 2), one-armed antibody captured on immobilised HER2, soluble FcγR as analyte
[30] = target: FcγRIIb (UniProt P31994); experiment: as above

Substance: Variant 18370 (S239D), one-armed trastuzumab antibody with heterodimeric IgG1 Fc
- IIb/IIaR Selectivity (IIb-Fold/IIaR-Fold) [4]: 1.2
- IIaR-fold (fold change in affinity over wild-type) [5]: 3.8 fold
- IIb-fold (fold change in affinity over wild-type) [6]: 4.39 fold

Substance: Variant 26725 (A_D270K_strat2), one-armed trastuzumab antibody with heterodimeric IgG1 Fc
- IIb-Fold wrt Control [7]: 0.3 fold
- IIaR-fold [8]: 1.9 fold
- IIb Selectivity [9]: 12.5 fold
- IIb-Fold [10]: 24.1 fold
- Kd [11]: 160 nM
- Kd [12]: 60 nM
- IIb Selectivity Fold wrt Control [13]: 0.9 fold
- IIaR-Fold wrt Control [14]: 0.3 fold

Substance: Variant 27293, Strategy 1 Launching Module 1 (A_G236N_G237A / B_G236D_G237F_S239D_S267V_H268D_Template 1), one-armed trastuzumab antibody
- IIb/IIaR Selectivity vs. Control [15]: 1 fold
- IIb/IIaR Selectivity vs. WT [16]: 11.8 fold
- IIaR-Fold vs. Control [17]: 1 fold
- IIb-Fold vs. Control [18]: 1 fold
- Kd [19]: 8.8 nM
- Kd [20]: 3.5 nM
- IIaR-Fold vs. WT [21]: 35 fold
- IIb-Fold vs. WT [22]: 415 fold

Substance: v16463, wild-type one-armed trastuzumab antibody (OAA format)
- Kd [29]: 310 nM
- Kd [30]: 1400 nM

Continued, values first:

- IIb/IIaR Selectivity (IIb-Fold/IIaR-Fold) [1]: 1
- IIaR-fold (fold change in affinity over wild-type) [2]: 1 fold
- IIb-fold (fold change in affinity over wild-type) [3]: 1 fold
Substance: Variant 16463, wild-type control one-armed trastuzumab antibody with heterodimeric IgG1 Fc

- IIaR-fold [23]: 1.4 fold
- IIb-Fold [24]: 112 fold
- IIb Selectivity [25]: 80.5 fold
- ELISA (% of non-competed FcγRIIb signal in presence of 10x FcγRIIa) [26]: 100%
- Kd [27]: 220 nM
- Kd [28]: 13 nM
Substance: v12, IIb-specific comparator with symmetrical E233D_G237D_P238D_H268D_P271G_A330R (antibody)
